Test results: IntAct's records for PubMed 17496148

B1: Anti-sigma-E factor RseA (Escherichia coli (strain K12)), P0AFX7 (parent)
chain: MQKEQLSALMDGETLDSELLNELAHNPEMQKTWESYHLIRDSMRGDTPEVLHFDISSRVMAAIEEEPVRQPATLIPEAQPAPHQWQKMPFWQKVRPWAAQLTQMGVAACVSLAVIVGVQHYNGQSETSQQPETPVFNTLPMMGKASPVSLGVPSEATANNGQQQQVQEQRRRINAMLQDYELQRRLHSEQLQFEQAQTQQAAVQVPGIQTLGTQSQ
partner: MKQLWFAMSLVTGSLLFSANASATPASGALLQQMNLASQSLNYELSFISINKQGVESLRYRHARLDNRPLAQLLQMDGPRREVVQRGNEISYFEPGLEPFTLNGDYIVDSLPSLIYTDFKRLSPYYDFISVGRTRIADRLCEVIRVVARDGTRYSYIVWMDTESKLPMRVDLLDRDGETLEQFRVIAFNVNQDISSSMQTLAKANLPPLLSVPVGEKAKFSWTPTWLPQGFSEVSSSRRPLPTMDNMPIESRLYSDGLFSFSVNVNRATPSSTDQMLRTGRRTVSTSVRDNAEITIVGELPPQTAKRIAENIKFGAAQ

Variants of: B1
Conditions: with rseb_ecoli rseB

Effect of a mutation on the interaction, disrupting interaction strength:
MQKEQLSALMDGETLDSELLNELAHNPEMQKTWESYHLIRDSMRGDTPEVLHFDISSRVMAAIEEEPVRQPATLIPEAQPAPHQWQKMPFWQKVRPWAAQLTQMGVAACVSLAVIVGVQHYNGQSETSQQPETPVFNTLPMMGKASPVSLGVPSEATANNGQQQQVQEQRAAINAMLQDYELQRRLHSEQLQFEQAQTQQAAVQVPGIQTLGTQSQ [R171A;R172A]
MQKEQLSALMDGETLDSELLNELAHNPEMQKTWESYHLIRDSMRGDTPEVLHFDISSRVMAAIEEEPVRQPATLIPEAQPAPHQWQKMPFWQKVRPWAAQLTQMGVAACVSLAVIVGVQHYNGQSETSQQPETPVFNTLPMMGKASPVSLGVPSEATANNGQQQQVQEQREEINAMLQDYELQRRLHSEQLQFEQAQTQQAAVQVPGIQTLGTQSQ [R171E;R172E]
MQKEQLSALMDGETLDSELLNELAHNPEMQKTWESYHLIRDSMRGDTPEVLHFDISSRVMAAIEEEPVRQPATLIPEAQPAPHQWQKMPFWQKVRPWAAQLTQMGVAACVSLAVIVGVQHYNGQSETSQQPETPVFNTLPMMGKASPVSLGVPSEATANNGQQQQVQEQRRRINAMLQDYELQAALHSEQLQFEQAQTQQAAVQVPGIQTLGTQSQ [R184A;R185A]
MQKEQLSALMDGETLDSELLNELAHNPEMQKTWESYHLIRDSMRGDTPEVLHFDISSRVMAAIEEEPVRQPATLIPEAQPAPHQWQKMPFWQKVRPWAAQLTQMGVAACVSLAVIVGVQHYNGQSETSQQPETPVFNTLPMMGKASPVSLGVPSEATANNGQQQQVQEQRRRINAMLQDYELQEELHSEQLQFEQAQTQQAAVQVPGIQTLGTQSQ [R184E;R185E]
